The results in this text go back to PMC3173232.

The target in data set [1] is XRCC4 FL;XLF(1-248) (Homo sapiens;Homo sapiens, UniProt Q13426;Q9H9Q4 1-336;1-248, |). Description: tryptophan fluorescence quenching.
Data set [2] deals with Ku70/80 heterodimer;XLF FL;XRCC4(1-140) (Homo sapiens (HeLa);Homo sapiens;Homo …, UniProt P12956;P13010;Q9H9Q4;Q13426 2-609;2-732;1-299;1-140, ||). Description: SEC co-elution and SAXS.
Data set [3] has as its target XLF FL (Homo sapiens, UniProt Q9H9Q4 1-299). Description: tryptophan fluorescence quenching.
For data set [4], the target named is XLF(1-248) (Homo sapiens, UniProt Q9H9Q4 1-248). Description: tryptophan fluorescence quenching.
Chain of XLF(1-248) (Q9H9Q4 1-248): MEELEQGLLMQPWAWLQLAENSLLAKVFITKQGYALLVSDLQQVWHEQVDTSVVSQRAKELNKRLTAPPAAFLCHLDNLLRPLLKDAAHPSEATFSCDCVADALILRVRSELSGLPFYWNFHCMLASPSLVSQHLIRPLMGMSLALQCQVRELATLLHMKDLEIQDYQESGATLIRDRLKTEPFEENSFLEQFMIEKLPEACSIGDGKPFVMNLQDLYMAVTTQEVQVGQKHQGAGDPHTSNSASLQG
In data set [5] the target is XRCC4 FL (Homo sapiens, UniProt Q13426 1-336). Briefly: tryptophan fluorescence quenching.
Chain of XRCC4 FL (Q13426 whole entry): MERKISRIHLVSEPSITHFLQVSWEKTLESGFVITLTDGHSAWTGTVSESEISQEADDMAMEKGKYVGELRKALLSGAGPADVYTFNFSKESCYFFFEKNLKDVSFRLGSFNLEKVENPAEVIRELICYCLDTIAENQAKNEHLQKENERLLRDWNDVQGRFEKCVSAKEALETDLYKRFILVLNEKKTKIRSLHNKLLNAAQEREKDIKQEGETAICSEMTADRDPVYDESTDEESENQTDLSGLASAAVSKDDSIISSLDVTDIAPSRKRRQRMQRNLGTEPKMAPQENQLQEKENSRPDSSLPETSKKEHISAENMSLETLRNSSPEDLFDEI
The target in data set [6] is XLF(1-224);XRCC4(1-140) (Homo sapiens;Homo sapiens, UniProt Q9H9Q4;Q13426 1-224;1-140, |). Briefly: SAXS titration.
Chain of XLF(1-224);XRCC4(1-140) (Q9H9Q4 1-224, chain 1 of 2): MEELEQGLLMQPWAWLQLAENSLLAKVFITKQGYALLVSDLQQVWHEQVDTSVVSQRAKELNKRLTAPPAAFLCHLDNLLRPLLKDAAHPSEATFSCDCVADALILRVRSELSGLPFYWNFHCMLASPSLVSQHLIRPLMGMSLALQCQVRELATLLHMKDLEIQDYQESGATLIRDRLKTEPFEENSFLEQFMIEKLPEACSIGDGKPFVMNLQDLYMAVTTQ
Chain of XLF(1-224);XRCC4(1-140) (Q13426 1-140, chain 2 of 2): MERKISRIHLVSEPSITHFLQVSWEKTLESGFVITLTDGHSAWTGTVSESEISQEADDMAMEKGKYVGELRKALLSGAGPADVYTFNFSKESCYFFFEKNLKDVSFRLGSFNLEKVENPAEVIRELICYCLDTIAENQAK
The target of data set [7] is XLF FL;XRCC4(1-140) (Homo sapiens;Homo sapiens, UniProt Q9H9Q4;Q13426 1-299;1-140, |). Description: SAXS titration.
Chain of XLF FL;XRCC4(1-140) (Q9H9Q4 whole entry, chain 1 of 2): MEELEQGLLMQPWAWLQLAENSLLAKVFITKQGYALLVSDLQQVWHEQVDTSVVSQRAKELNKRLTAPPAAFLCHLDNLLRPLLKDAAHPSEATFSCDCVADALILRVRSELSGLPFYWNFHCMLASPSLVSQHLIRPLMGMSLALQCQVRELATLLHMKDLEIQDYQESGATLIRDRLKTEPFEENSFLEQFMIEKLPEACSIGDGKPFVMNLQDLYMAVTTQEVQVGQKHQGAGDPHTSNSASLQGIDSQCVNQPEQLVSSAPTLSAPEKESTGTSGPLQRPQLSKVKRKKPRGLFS
Chain of XLF FL;XRCC4(1-140) (Q13426 1-140, chain 2 of 2): as the sequence (Q13426 1-140, chain 2 of 2) above

Chain of XLF FL (Q9H9Q4 whole entry): as the sequence (Q9H9Q4 whole entry, chain 1 of 2) above
Chain of Ku70/80 heterodimer;XLF FL;XRCC4(1-140) (P12956 2-609, chain 1 of 4): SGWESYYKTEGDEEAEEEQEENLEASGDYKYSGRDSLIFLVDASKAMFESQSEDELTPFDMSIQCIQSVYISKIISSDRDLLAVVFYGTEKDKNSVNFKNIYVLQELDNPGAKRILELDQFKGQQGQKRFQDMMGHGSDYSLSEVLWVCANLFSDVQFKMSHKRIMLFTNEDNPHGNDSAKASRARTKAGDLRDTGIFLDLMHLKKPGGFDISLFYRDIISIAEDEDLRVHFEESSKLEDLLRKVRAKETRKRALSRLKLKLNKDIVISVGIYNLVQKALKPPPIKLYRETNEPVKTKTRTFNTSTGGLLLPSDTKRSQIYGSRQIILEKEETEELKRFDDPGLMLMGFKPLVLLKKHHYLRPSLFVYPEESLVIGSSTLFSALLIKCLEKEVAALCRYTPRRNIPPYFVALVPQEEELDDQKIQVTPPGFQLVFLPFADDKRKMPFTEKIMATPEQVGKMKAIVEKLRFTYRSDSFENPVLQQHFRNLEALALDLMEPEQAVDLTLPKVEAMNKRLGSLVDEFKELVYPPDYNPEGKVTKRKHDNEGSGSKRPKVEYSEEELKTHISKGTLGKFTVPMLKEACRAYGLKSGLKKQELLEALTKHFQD
Chain of Ku70/80 heterodimer;XLF FL;XRCC4(1-140) (P13010 2-732, chain 2 of 4): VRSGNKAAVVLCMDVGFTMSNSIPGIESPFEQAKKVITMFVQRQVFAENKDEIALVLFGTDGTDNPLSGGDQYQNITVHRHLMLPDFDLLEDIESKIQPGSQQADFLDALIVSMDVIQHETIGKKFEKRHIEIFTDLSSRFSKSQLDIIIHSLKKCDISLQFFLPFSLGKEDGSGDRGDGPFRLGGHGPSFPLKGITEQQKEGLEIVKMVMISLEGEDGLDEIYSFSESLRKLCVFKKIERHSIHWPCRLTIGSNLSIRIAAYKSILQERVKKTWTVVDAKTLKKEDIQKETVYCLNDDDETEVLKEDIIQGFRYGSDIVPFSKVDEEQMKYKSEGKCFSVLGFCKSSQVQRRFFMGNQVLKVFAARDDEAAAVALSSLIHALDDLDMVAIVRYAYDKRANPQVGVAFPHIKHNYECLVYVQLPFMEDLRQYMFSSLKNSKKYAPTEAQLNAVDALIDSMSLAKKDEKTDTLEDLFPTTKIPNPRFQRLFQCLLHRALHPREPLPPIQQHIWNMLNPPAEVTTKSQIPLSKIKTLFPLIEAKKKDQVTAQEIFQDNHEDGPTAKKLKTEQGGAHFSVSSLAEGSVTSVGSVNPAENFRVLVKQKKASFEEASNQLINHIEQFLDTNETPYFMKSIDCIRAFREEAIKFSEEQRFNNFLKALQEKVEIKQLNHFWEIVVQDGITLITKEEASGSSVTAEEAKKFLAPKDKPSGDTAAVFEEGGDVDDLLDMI
Chain of Ku70/80 heterodimer;XLF FL;XRCC4(1-140) (Q9H9Q4 whole entry, chain 3 of 4): as the sequence (Q9H9Q4 whole entry, chain 1 of 2) above
Chain of Ku70/80 heterodimer;XLF FL;XRCC4(1-140) (Q13426 1-140, chain 4 of 4): as the sequence (Q13426 1-140, chain 2 of 2) above
Chain of XRCC4 FL;XLF(1-248) (Q13426 whole entry, chain 1 of 2): as the sequence (Q13426 whole entry) above
Chain of XRCC4 FL;XLF(1-248) (Q9H9Q4 1-248, chain 2 of 2): as the sequence (Q9H9Q4 1-248) above

B1: 40-bp DNA (dsDNA)
DNA 1: GGATACACAACAGACCGCAACACTCAGATTACTTTTCGCC
DNA 2: GGCGAAAAGTAATCTGAGTGTTGCGGTCTGTTGTGTATCC
Regarding B1, the Kd (as a rule, a measure of binding affinity in units of concentration) was 0.7 ± 0.05 µM in data set [1], 1.6 ± 0.1 µM in data set [3], 2.9 ± 0.2 µM in data set [4] and 0.95 ± 0.05 µM in data set [5]. The binding result in data set [2], in data set [6] and in data set [7] was “binds” throughout.
